Reference: US20210403913

Key:
[1] = biological target: CXCL8 (IL-8) (Homo sapiens) (UniProt P10145); test: SPR; settings: L-RNA, CXCL8 immobilised
[2] = biological target: D-CXCL8 (mirror-image human CXCL8) (synthetic (human sequence)) (UniProt P10145); test: competition; settings: competition pull-down vs labelled 315-F8-001; 37 C
[3] = biological target: D-CXCL8 (mirror-image human CXCL8) (synthetic (human sequence)) (UniProt P10145); test: pulldown; settings: direct pull-down, 37 C

## GCUGACGGAAGUACGUGGAAAGCCGAAAGUGUGUCCCGGUCAGC [315-F8-001 (L)]
[1]; 25 C, 20 mM Tris pH 7.4, 150 mM NaCl, 5 mM KCl, 1 mM MgCl2, 1 mM CaCl2
  Kd: 0.22 nM
[1]; 37 C
  Kd: 0.68 nM

## CUGACGGAAGUACGUGGAAAGCCGAAAGUGUGUCCCGGUCAG [315-F8-002 (D)]
[2]
  Kd: 1.1 nM

## GCUGACGGAAGUACGUGGAAAGCCAAUGAGUGUGUCCCGGUCAGC [315-H9-001 (D)]
[3]
  Kd: 1.7 nM

## CUGACGGAAGUACGUGGAAAGCCGAAAGUGUGUCCCGGUCAG [315-F8-002 (L)]
[1]; 25 C
  Kd: 0.22 nM
[1]; 37 C
  Kd: 0.75 nM

## GCUGACGGAAGUACGUGGAAAGCCGAAAGUGUGUCCCGGUCAGC [315-F8-001 (D)]
[3]; 20 mM Tris pH 7.4, 150 mM NaCl, 5 mM KCl, 1 mM MgCl2, 1 mM CaCl2, yeast RNA
  Kd: 0.8 nM

## CUGACGGAAGUACGUGGAAAGCCGAAAGUGUGUCCCGGUCAG [315-F8-002-PEG (AON-S08)]
[1]; 5'-aminohexyl linker with 40 kDa Y-shape PEG, 25 C
  Kd: 0.2 nM
[1]; 5'-aminohexyl linker with 40 kDa Y-shape PEG, 37 C
  Kd: 0.8 nM
